Experimental findings from a protein production outcome set (Wang et al. 2014) are described below.

The nature of the data set: label from the status in PepcDB records.

In the case of “EKEFYLDSSSEALEEKAITHTSKKPDTPEEITISLNGHLFTGNTEQPLLMQVEEAGLSINNSCRAGLCGACRVTLESGEVEQEDSPALNQKLKEAGMILACCSVPKTDVEIVD”, the protein production result is given as “failed”.

As for “EKRKVLIPIDFSNYSLKACQFGFSFANAINSEVVLLHAYFSPIYVPTIPYGTDNFNFQIEREESVKSMIETVHNELNKLSDTIKKKVESGEFPNIKYTCILRDGIPEEEILRYAKEYNPQIIIMGTRGRSQKDIDLIGSVTAEVIERSKSFVYAIPEHTPLK”, the protein production entry is given as “failed”.

Regarding “EKTVRVVINFKKTQKTIVRVSPHASLQELAPIICSKCEFDPLHTLLLKDYQSQEPLDLTKSLNDLGLRELYAMDVNRE”, the protein production entry is reported as “not failed”.

Turning to “ELEPGAFSELYQRYRHCDAPICLYEQGRDSFEDEGRWRLILCATCGSHGTHRDCSSLRPNSKKWECNECLPA”, the protein production entry is “not failed”.

For the sequence “EMGVAYLTEVVVNEVVEAHEVPEVQHALNINSSESLIHIVRTRRLNQHVKIVDEDYFLKSIVSDIGNDVASDSIYDYLEKVLNLNISYSSKSITFEPFDEQAYQLFGDVSVAYSATVRSIVYLENTMPFQYNISKHLANEFKFNDFSRRRIK”, the protein production entry is given as “failed”.

“EPRVNTSALQKIAADMSNIIENLDTRELHFEGEEVDYDVSPSDPKIQEVYIPFSAIYNTQGFKEPNIQTYLSGCPIKAQVLEVERFTSTTRVPSINLYTIELTHGEFKWQVKRKFKHFQEFHRELLKYKAFIRIPIPTRRHTFRRQN”: the protein production result is “failed”.

As to “EQEDRALRSFKLSVTVDPKYHPKIIGRKGAVITQIRLEHDVNIQFPDKDDGNQPQDQITITGYEKNTEAARDAILRIVGELEQM”, the protein production entry was “not failed”.

As to “EQITHWIVVQQDTTEQQRVQQAMRTQRDRLQRMQGVAQTGGWEYDPKSDSFTGSNEFYRLIGLPQSTNFDLERAFQLYPPSVRGRVKTAAQRCLEDGSPFDMEVPLVSATGQHREVRVRGSAEREEG”, the protein production entry is “failed”.

With “EQNSKEKFKQLFRVLEDTFARPLSPYEIETLNQWIDVDKHDSAIIQAALDEANSLNKLSFKYMDRILLNWKKNNV”, the protein production result is on record as “failed”.

As for “ERIPLAVGDTPATLYRLEGDAEAPLAVVTHGFGGSRQMMEAISLTLARAGLAVVSFDFRGQGRSAIPMSPDAFPNEAGSSGTTVQLVRQTLEVVEAARALPGIAGPPALIGHSMATDILVRAADRLPEVGPVALISAYSRQVTPETPARLLILSGQREGGLREVALEMARQVAPDAAEGETVRAGAVERRASVAPYVGHAGVLWSPTTLRELRDWL”, the protein production result is listed as “failed”.

Turning to “ERRGFSAEDFKTFHPGGKLGSQLLLAHELAHSGEAVPLLPIGSPMSEAVIQMSSKGFGVVGVVGGDGELVGVITDGDLRRHMSQSLLLLTVETVMSHMPRVITPGMLASAAMEMMQSQKITVLFLVDDVGRPSGILHVHDLLRA”, the protein production entry is “failed”.

In the case of “ERRKTLETYQQLFYLLQTNPLYLAKLIFQMPQNKSTKFMDTVIFTLYNYASNQREEYLLLKLFKTALEEEIKSKVDQVQDIVTGNPTVIKMVVSFNRGARGQNTLRQLLAPVVKEIIDDKSLIINTNPVEVYKAWVNQL”, the protein production result is listed as “failed”.

In the case of “ESILANLSAGVIAFSGDWHIRAANTSASRILGVDFSQLAEHRFPEWGGVMPAVASLVETVMQHADSDVESDWQTQLGYDTAQGERTLLVRGARLPEHSSDGYVLVFNDITE”, the protein production result is “failed”.

Consider “ESYTIPHPSYDQPDSYQEREIVIGNSTYPLPATLTVPKHQRGEKVPVVVLVHGAGIHDRDATYLGTKILRDLAVGLSSNGIAVLRYEKRTLEHALKMSAEPVTLDRDTTDDAIYAAKSAAQQEGIDPNNIFILGHSQGAGTMPRILSKAPSSLVRGSILLAPPAHPLTDIAIDQYQYLGKPQEEIDELKRQAAFIQDPTFNPDHPPAGYNFGSPHFMYDVSRWRPVEEAKSRKEPLLILQGARDYQVTVKNEYTKWQEGLANRRNVQFKKYPKLNHFFTEGDGELSLPSEYEIPANVPEYVIQDIITWVNETK”, for which the protein production result is “failed”.

Regarding “ESYWRSRMIDAVTSDEDKVAPVYKLEEICDLLRSSHVSIVKEFSEFILKRLDNKSPIVKQKALRLIKYAVGKSGSEFRREMQRNSVAVRNLFHYKGHPDPLKGDALNKAVRETAHETISAIFSEENG”, the protein production entry was “not failed”.

Take “ETPVGLNLELTDQDGRPMFPDGSAVPYERTRKLVARLAAPLRATSLRVIIVGHTAATVVQAGDDDPLSLSVNRANAVREVLKQEGLPSSQVLSLVGKGDGEPLFPDAPALAANRRVTITLMRENPPLPPDLQR”: the protein production result was “failed”.

With “ETRIIKGFECKPHSQPWQAALFEKTRLLCGATLIAPRWLLTAAHCLKPRYIVHLGQHNLQKEEGCEQTRTATESFPHPGFNNSLPNKDHRNDIMLVKMASPVSITWAVRPLTLSSRCVTAGTSCLISGWGSTSSPQLRLPHTLRCANITIIEHQKCENAYPGNITDTMVCASVQEGGKDSCQGDSGGPLVCNQSLQGIISWGQDPCAITRKPGVYTKVCKYVDWIQETMKNN”, the protein production result is reported as “failed”.

As for “EVALRHPQSPKPCLIGNCQGGWAILTLMAANPDVAGVAVVNGAPLSYWGGENGKNPMRYIGGIWGGSWIAQMAGDLGNGKFDGANLVMNFEMANPKVTYWSKYYNLFANLDKEEIRFLNFERWWGGFSLLNVNEMRGIIDNLFIGNKLVHGKIPLGQSGNNLDLRNISVPVIIFCSEGDNITPPQQALNWVSDLYSNTLEIKLDGQVIVYLIHKSVGHLGIFVSSEVAKKEHNQIIDLLN”, the protein production result is “not failed”.

Take “EYQVLNLFICGIGTVGGSLVEQIRCQQQKLMMENGLKLHVVGIIDAAKAMFSREGFDLANFREELQKKGKDSNLQTIRDEIVGMNIFNSVFVDCTASPDIASLYKDLLQHNVSVVAANKIAASSAYENYRELKTIARQRGVKYLFETNVGAGLPIINTINDLIHSGDKILKIEAVLSGTLNYIFNK”: the protein production entry was “failed”.

Turning to “FCGRARVHTDFTPSPYDTDSLKLKKGDIIDIISKPPMGTWMGLLNNKVGTFKFIYVDVLS”, the protein production result was “not failed”.

Turning to “FDASTLYVPEDFLNSCTPGMRKWWQIKSQNFDLVICYKVGKFYELYHMDALIGVSELGLVFMKGNWAHSGFPEIAFGRYSDSLVQKGYKVARVEQTETPEMMEARCRKMAHISKYDRVVRREICRIITKGTQTYSVLEGDPSENYSKYLLSLKEKEEDSSGHTRAYGVCFVDTSLGKFFIGQFSDDRHCSRFRTLVAHYPPVQVLFEKGNLSKETKTILKSSLSCSLQEGLIPGSQFWDASKTLRTLLEEEYFREKLSDGIGVMLPQVLKGMTSESDSIGLTPGEKSELALSALGGCVFYLKKCLIDQELLSMANFEEYIPLDSDTVSTTRSGAIFTKAYQRMVLDAVTLNNLEIFLNGTNGSTEGTLLERVDTCHTPFGKRLLKQWLCAPLCNHYAINDRLDAIEDLMVVPDKISEVV”, the protein production result is “failed”.

For “FDGNLKRYLKSEPIPESNDGPVKVVVAENFDEIVNNENKDVLIEFYAPWCGHCKNLEPKYKELGEKLSKDPNIVIAKMDATANDVPSPYEVRGFPTIYFSPANKKLNPKKYEGGRELSDFISYLQREAT”, the protein production result is reported as “not failed”.

“FHWVNDGYADFDGFLAALSSRKRKAIRKERAQAQGFGGQIRELTGGDLRPEHWDAFWRFYQDTGARKWGSPYLTRAFFDIAHQTMADDMVLVLAERDGIPVAGALNFIGREALFGRYWGCVEHHPCLHFELCYYRAIDWAIAHGLARVEAGAQGEHKLARG”: the protein production entry is reported as “not failed”.

As for “FKGKNLLVIQVESLENFVINKSVNGQEITPNLNKLLKNSLYFSNYNEEVNQGTTSDAELMTNTSIYPVSTGSTFFRYPDNKYYNSLPKILERQGYYTQAMHGDKGSYWNWKPALKSIGFQNIVDSTGFKDDENIGLGLSDGSFLRQAEPMVEASKGPWYNYVITMSGHAPFDLPTKYRELKINSELDSSYLGGYLQSVHYEDKQIGIFLDNLRKSGALDNTMVVIYGDHCGIHKYYQSDVETTKGAESWMIDNHKEVPLIVYNSSLKGKEITTTGGQIDLMPTILYLMGIDKNEYLNTAMGRNLLNTNESYAVWSNGEFIG”, the protein production result was “failed”.
